From article PMC4593227, “Biochemical effects of mutations in the gene encoding the alpha subunit of eukaryotic initiation factor (eIF) 2B associated with Vanishing White Matter disease” (BMC Medical Genetics, 2015)

T1: His6-myc-tagged Val183Phe eIF2Bα (human, UniProt Q14232 1-305, Val183Phe)
T1 sequence: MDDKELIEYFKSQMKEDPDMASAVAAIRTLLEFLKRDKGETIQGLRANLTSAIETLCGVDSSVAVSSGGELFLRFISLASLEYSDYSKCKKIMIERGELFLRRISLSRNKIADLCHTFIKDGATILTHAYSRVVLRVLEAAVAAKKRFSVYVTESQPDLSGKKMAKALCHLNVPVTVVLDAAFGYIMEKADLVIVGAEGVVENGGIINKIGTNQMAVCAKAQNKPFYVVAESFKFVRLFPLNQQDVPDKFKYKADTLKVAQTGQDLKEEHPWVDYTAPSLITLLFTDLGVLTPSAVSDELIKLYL

T2: His6-myc-tagged Tyr275Cys eIF2Bα (human, UniProt Q14232 1-305, Tyr275Cys)
T2 construct: eIF2Bα encoded by EIF2B1 with the VWM patient mutation Tyr275Cys; residue numbers start with the first methionine of GenBank AAI03764; also called p.Tyr275Cys; source: HEK293, transfected (calcium phosphate), in lysate
T2 sequence: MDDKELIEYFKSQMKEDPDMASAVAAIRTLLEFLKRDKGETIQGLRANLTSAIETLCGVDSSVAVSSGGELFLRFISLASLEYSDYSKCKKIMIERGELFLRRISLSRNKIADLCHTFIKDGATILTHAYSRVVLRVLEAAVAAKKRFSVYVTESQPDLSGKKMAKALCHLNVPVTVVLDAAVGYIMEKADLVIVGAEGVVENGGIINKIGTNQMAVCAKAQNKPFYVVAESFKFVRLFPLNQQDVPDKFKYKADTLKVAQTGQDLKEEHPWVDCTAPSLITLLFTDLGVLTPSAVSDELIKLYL

B1: myc-tagged eIF2Bβ (natural protein, UniProt P49770 1-351, looked up)
chain: MPGSAAKGSELSERIESFVETLKRGGGPRSSEEMARETLGLLRQIITDHRWSNAGELMELIRREGRRMTAAQPSETTVGNMVRRVLKIIREEYGRLHGRSDESDQQESLHKLLTSGGLNEDFSFHYAQLQSNIIEAINELLVELEGTMENIAAQALEHIHSNEVIMTIGFSRTVEAFLKEAARKRKFHVIVAECAPFCQGHEMAVNLSKAGIETTVMTDAAIFAVMSRVNKVIIGTKTILANGALRAVTGTHTLALAAKHHSTPLIVCAPMFKLSPQFPNEEDSFHKFVAPEEVLPFTEGDILEKVSVHCPVFDYVPPELITLFISNIGGNAPSYIYRLMSELYHPDDHVL
notes: eIF2Bβ, beta subunit of eukaryotic initiation factor 2B; one of 'the other subunits of the eIF2B complex'; source: HEK293, transfected (calcium phosphate), in lysate
B2: myc-tagged eIF2Bγ (natural protein, UniProt Q9NR50 1-452, looked up)
chain: MEFQAVVMAVGGGSRMTDLTSSIPKPLLPVGNKPLIWYPLNLLERVGFEEVIVVTTRDVQKALCAEFKMKMKPDIVCIPDDADMGTADSLRYIYPKLKTDVLVLSCDLITDVALHEVVDLFRAYDASLAMLMRKGQDSIEPVPGQKGKKKAVEQRDFIGVDSTGKRLLFMANEADLDEELVIKGSILQKHPRIRFHTGLVDAHLYCLKKYIVDFLMENGSITSIRSELIPYLVRKQFSSASSQQGQEEKEEDLKKKELKSLDIYSFIKEANTLNLAPYDACWNACRGDRWEDLSRSQVRCYVHIMKEGLCSRVSTLGLYMEANRQVPKLLSALCPEEPPVHSSAQIVSKHLVGVDSLIGPETQIGEKSSIKRSVIGSSCLIKDRVTITNCLLMNSVTVEEGSNIQGSVICNNAVIEKGADIKDCLIGSGQRIEAKAKRVNEVIVGNDQLMEI
notes: eIF2Bγ, gamma subunit of eukaryotic initiation factor 2B; one of 'the other subunits of the eIF2B complex'; source: HEK293, transfected (calcium phosphate), in lysate

Legend:
[1] = target: T1, His6-myc-tagged Val183Phe eIF2Bα; assay: cell-based or functional assay
[2] = target: T1, His6-myc-tagged Val183Phe eIF2Bα; assay: pull-down; His6-myc-eIF2Bα (WT or mutant) co-expressed with myc-tagged eIF2B subunits in HEK293; ~200 μg lysate on Ni2+-NTA agarose, 1 h at 4 °C, lysis buffer (20 mM Hepes-KOH pH 7.6, 50 mM KCl, 0.5 % Triton X-100) with 20 mM imidazole; bound material blotted for myc tag, total and phospho-eIF2α; settings: partners not purified
[3] = target: T2, His6-myc-tagged Tyr275Cys eIF2Bα; assay: as above; settings: partners not purified

| Binder | decrease in eIF2B GEF activity of complexes containing Val183Phe eIF2Bα, relative to WT (100 %) [1] | reduction in binding relative to WT [2] | reduction in binding relative to WT [3] |
| --- | --- | --- | --- |
| B1 | ~30% | ~50% | ~50% |
| B2 | ~30% | ~50% | ~50% |
